*1 amine or outer side, *2 acyl side, *3 side chain or, on linkers, in order; H or OH if unused. Bridges are numbered along the chain shown (N, C = ends). Primed or numbered codes have the meaning given here. Where no end group is shown, it is not given here. [ ]: non-standard residue; d: D form. The star is where a group is joined. Azetidine3carboxylic = O=C(C1CN([*:1])C1)[*:2]; dimethyl = N-terminal dimethyl modification; PEG4″ = PEG4 (tetraethylene glycol) spacer; Phe(4-Cl) = N[C@@H](Cc1ccc(Cl)cc1)C(=O)O; 2Nal = N[C@@H](Cc1ccc2ccccc2c1)C(=O)O; d2Nal = N[C@H](Cc1ccc2ccccc2c1)C(=O)O; NMeCha = CN[C@@H](CC1CCCCC1)C(=O)O; NMeR = CN[C@@H](CCCNC(=N)N)C(=O)O; Palmitoyl = CCCCCCCCCCCCCCCC(=O)*; hArg = N=C(N)NCCCC[C@H](N)C(=O)O; NMeQ = CN[C@@H](CCC(N)=O)C(=O)O; Cha = N[C@@H](CC1CCCCC1)C(=O)O; dCha = N[C@H](CC1CCCCC1)C(=O)O; AllylGly = C=CC[C@H](N)C(=O)O; αMeL = CC(C)C[C@](C)(N)C(=O)O; Cba = N[C@@H](CC1CCC1)C(=O)O; S5 = C=CCCC[C@](C)(N)C(=O)O; Nle = CCCC[C@H](N)C(=O)O; Ac4c = NC1(C(=O)O)CCC1
T1: β-catenin (UniProt P35222 1-781, limits assumed)
T1 construct: also called beta-catenin
T1 sequence (looked up): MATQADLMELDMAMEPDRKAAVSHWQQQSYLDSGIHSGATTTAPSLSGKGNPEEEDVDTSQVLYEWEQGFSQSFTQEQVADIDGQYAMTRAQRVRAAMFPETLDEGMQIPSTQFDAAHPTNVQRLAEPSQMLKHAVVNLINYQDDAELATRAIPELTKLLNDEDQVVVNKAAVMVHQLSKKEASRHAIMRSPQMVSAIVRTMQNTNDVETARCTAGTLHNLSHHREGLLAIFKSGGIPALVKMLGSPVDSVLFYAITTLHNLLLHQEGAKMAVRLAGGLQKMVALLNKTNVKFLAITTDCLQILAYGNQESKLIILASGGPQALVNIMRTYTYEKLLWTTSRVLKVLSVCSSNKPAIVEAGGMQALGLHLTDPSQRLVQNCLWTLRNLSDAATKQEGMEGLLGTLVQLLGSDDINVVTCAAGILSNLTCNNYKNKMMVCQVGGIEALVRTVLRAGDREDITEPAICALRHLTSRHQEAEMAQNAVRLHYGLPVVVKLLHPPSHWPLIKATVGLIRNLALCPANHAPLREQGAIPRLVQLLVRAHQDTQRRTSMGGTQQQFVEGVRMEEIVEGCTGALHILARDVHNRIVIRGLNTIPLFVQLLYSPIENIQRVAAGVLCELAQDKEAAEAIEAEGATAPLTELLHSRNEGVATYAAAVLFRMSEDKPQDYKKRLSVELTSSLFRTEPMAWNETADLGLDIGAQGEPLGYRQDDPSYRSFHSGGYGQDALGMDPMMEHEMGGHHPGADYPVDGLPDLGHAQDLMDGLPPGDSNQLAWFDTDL

B1: SEQ ID NO: 188 (peptide)
peptide: Ac-HRQRSLQTLR[S5]IQR[S5][Cha][d2Nal]-NH2
modifications: staple 11-15
SMILES: CC[C@H](C)[C@@H]1NC(=O)[C@@](C)(NC(=O)[C@H](CCCNC(=N)N)NC(=O)[C@H](CC(C)C)NC(=O)[C@@H](NC(=O)[C@H](CCC(N)=O)NC(=O)[C@H](CC(C)C)NC(=O)[C@H](CO)NC(=O)[C@H](CCCNC(=N)N)NC(=O)[C@H](CCC(N)=O)NC(=O)[C@H](CCCNC(=N)N)NC(=O)[C@H](Cc2c[nH]cn2)NC(C)=O)[C@@H](C)O)CCCC=CCCC[C@@](C)(C(=O)N[C@@H](CC2CCCCC2)C(=O)N[C@H](Cc2ccc3ccccc3c2)C(N)=O)NC(=O)[C@H](CCCNC(=N)N)NC(=O)[C@H](CCC(N)=O)NC1=O
B2: SEQ ID NO: 189 (peptide)
peptide: Ac-HRQRSLQTL[NMeR][S5]IQR[S5][Cha][2Nal]-NH2
modifications: staple 11-15
SMILES: CC[C@H](C)[C@@H]1NC(=O)[C@@](C)(NC(=O)[C@H](CCCNC(=N)N)N(C)C(=O)[C@H](CC(C)C)NC(=O)[C@@H](NC(=O)[C@H](CCC(N)=O)NC(=O)[C@H](CC(C)C)NC(=O)[C@H](CO)NC(=O)[C@H](CCCNC(=N)N)NC(=O)[C@H](CCC(N)=O)NC(=O)[C@H](CCCNC(=N)N)NC(=O)[C@H](Cc2c[nH]cn2)NC(C)=O)[C@@H](C)O)CCCC=CCCC[C@@](C)(C(=O)N[C@@H](CC2CCCCC2)C(=O)N[C@@H](Cc2ccc3ccccc3c2)C(N)=O)NC(=O)[C@H](CCCNC(=N)N)NC(=O)[C@H](CCC(N)=O)NC1=O
B3: SEQ ID NO: 123 (peptide)
peptide: Ac-L[NMeQ]T[Cha]R[S5]IQR[S5][Cba][2Nal]-NH2
modifications: staple 6-10; not fully specified; printed as L(N-methylQ)T(Cha)RXIQRX(CBA)(2-Nal)
B4: SEQ ID NO: 195 (peptide)
peptide: Ac-L[NMeQ]TLR[S5]IQR[S5][Phe(4-Cl)][2Nal]-NH2
modifications: staple 6-10; not fully specified; printed as L(N-methylQ)TLRXIQRX(4-Cl-Ph)(2-Nal), X/X stapled, (S) α-methyl, N-terminal Ac, C-terminal NH2
B5: SEQ ID NO: 172 (peptide)
peptide: Ac-LQTLR[S5]IQR[S5][αMeL][2Nal]-NH2
modifications: staple 6-10; not fully specified (residue 2); printed as L(N-methylQ)TLRXIQRX(α-methylL)(2-Nal); also: N-methylQ at 2: D or L (both stated)
B6: SEQ ID NO: 129 (peptide)
peptide: Ac-L[NMeQ]TLR[S5][Cba]QR[S5][Cba][2Nal]-NH2
modifications: staple 6-10; not fully specified; printed as L(N-methylQ)TLRX(CBA)QRX(CBA)(2-Nal)
B7: SEQ ID NO: 178 (peptide)
peptide: Ac-HRQRSLQTLR[S5]IQR[S5][Azetidine3carboxylic][2Nal]-NH2
modifications: staple 11-15
SMILES: CC[C@H](C)[C@@H]1NC(=O)[C@@](C)(NC(=O)[C@H](CCCNC(=N)N)NC(=O)[C@H](CC(C)C)NC(=O)[C@@H](NC(=O)[C@H](CCC(N)=O)NC(=O)[C@H](CC(C)C)NC(=O)[C@H](CO)NC(=O)[C@H](CCCNC(=N)N)NC(=O)[C@H](CCC(N)=O)NC(=O)[C@H](CCCNC(=N)N)NC(=O)[C@H](Cc2c[nH]cn2)NC(C)=O)[C@@H](C)O)CCCC=CCCC[C@@](C)(C(=O)N2CC(C(=O)N[C@@H](Cc3ccc4ccccc4c3)C(N)=O)C2)NC(=O)[C@H](CCCNC(=N)N)NC(=O)[C@H](CCC(N)=O)NC1=O
B8: SEQ ID NO: 183 (peptide)
peptide: Ac-H[hArg]QRSLQTLR[S5]IQR[S5][Cha][2Nal]-NH2
modifications: staple 11-15
SMILES: CC[C@H](C)[C@@H]1NC(=O)[C@@](C)(NC(=O)[C@H](CCCNC(=N)N)NC(=O)[C@H](CC(C)C)NC(=O)[C@@H](NC(=O)[C@H](CCC(N)=O)NC(=O)[C@H](CC(C)C)NC(=O)[C@H](CO)NC(=O)[C@H](CCCNC(=N)N)NC(=O)[C@H](CCC(N)=O)NC(=O)[C@H](CCCCNC(=N)N)NC(=O)[C@H](Cc2c[nH]cn2)NC(C)=O)[C@@H](C)O)CCCC=CCCC[C@@](C)(C(=O)N[C@@H](CC2CCCCC2)C(=O)N[C@@H](Cc2ccc3ccccc3c2)C(N)=O)NC(=O)[C@H](CCCNC(=N)N)NC(=O)[C@H](CCC(N)=O)NC1=O
B9: SEQ ID NO: 173 (peptide)
peptide: Ac-LQTLR[S5]IQR[S5][dCha][2Nal]-NH2
modifications: staple 6-10; not fully specified (residue 2); printed as L(N-methylQ)TLRXIQRXD(Cha)(2-Nal); also: N-methylQ at 2: D or L (both stated)
B10: SEQ ID NO: 174 (peptide)
peptide: Ac-LQTLR[S5]IQR[S5][NMeCha][2Nal]-NH2
modifications: staple 6-10; not fully specified (residue 2); printed as L(N-methylQ)TLRXIQRX(N-methylCha)(2-Nal); also: N-methylQ at 2: D or L (both stated)
B11: SEQ ID NO: 184 (peptide)
peptide: Ac-HRQ[NMeR]SLQTLR[S5]IQR[S5][Cha][2Nal]-NH2
modifications: staple 11-15
SMILES: CC[C@H](C)[C@@H]1NC(=O)[C@@](C)(NC(=O)[C@H](CCCNC(=N)N)NC(=O)[C@H](CC(C)C)NC(=O)[C@@H](NC(=O)[C@H](CCC(N)=O)NC(=O)[C@H](CC(C)C)NC(=O)[C@H](CO)NC(=O)[C@H](CCCNC(=N)N)N(C)C(=O)[C@H](CCC(N)=O)NC(=O)[C@H](CCCNC(=N)N)NC(=O)[C@H](Cc2c[nH]cn2)NC(C)=O)[C@@H](C)O)CCCC=CCCC[C@@](C)(C(=O)N[C@@H](CC2CCCCC2)C(=O)N[C@@H](Cc2ccc3ccccc3c2)C(N)=O)NC(=O)[C@H](CCCNC(=N)N)NC(=O)[C@H](CCC(N)=O)NC1=O
B12: SEQ ID NO: 158 (peptide)
peptide: Ac-H[NMeR]QRSLQTLR[S5]IQR[S5][Cba][2Nal]-NH2
modifications: staple 11-15; not fully specified; printed as H(R-Me)QRSLQTLRXIQRX(CBA)(2-Nal), X/X stapled, (S) α-methyl, N-terminal Ac, C-terminal NH2

biological target: T1, β-catenin; assay: ALPHA Screen (BCL9/β-catenin);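 also: bead proximity readout with the polypeptide linked to donor beads and β-catenin fixed on acceptor beads, their binding bringing the beads close enough to emit signal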
Description: In this assay, a polypeptide is conjugated to a donor bead and its target protein (i.e., β-catenin) is attached to an acceptor bead. When the two beads are in proximity due to the binding of the polypeptide to the target protein, a signal is generated and the binding affinity of the polypeptide can be quantitatively calculated. The assay may be conducted in the presence or absence of an unconjugated control polypeptide.

| IC50 [µM] | Binder |
| --- | --- |
| 0.387 | B1 |
| 0.247 | B2 |
| 1.45 | Ac-RERSLQTLR[S5]IQR[S5]L[2Nal]-NH2 (staple 10-14; not fully specified; printed as RERSLQTLRXIQRXL(2-Nal)) [SEQ ID NO: 5] |
| 4.2 | Ac-QERSLQTLR[S5]IQR[S5]L[2Nal]-NH2 (staple 10-14; not fully specified; printed as QERSLQTLRXIQRXL(2-Nal)) [SEQ ID NO: 10] |
| 0.844 | Ac-RERSLQTLR[S5]IQR[S5][Cba][2Nal]-NH2 (staple 10-14; not fully specified; printed as RERSLQTLRXIQRX(CBA)(2-Nal)) [SEQ ID NO: 13] |
| 3.62 | B3 |
| 9.71 | Ac-LQTLR[S5]IQR[S5][AllylGly][2Nal]-NH2 (staple 6-10) [SEQ ID NO: 175] |
| 13 | B4 |
| 8 | B5 |
| 2.06 | B6 |
| 6.66 | {4‑biphenyl acetic acid}-L[NMeQ]TLR[S5]IQR[S5][Cba][2Nal]-NH2 (staple 6-10; not fully specified) [SEQ ID NO: 143] |
| 0.563 | B7 |
| 0.119 | B8 |
| 14.7 | LQTLR[Nle]IQR[Nle]L[2Nal]PD [SEQ ID NO: 54] |
| 14.7 | B9 |
| 6.88 | B10 |
| 0.236 | Ac-HRQRSLQTLR[S5]IQR[S5][Ac4c][2Nal]-NH2 (staple 11-15) [SEQ ID NO: 176] |
| 0.261 | Ac-HRQRSL[NMeQ]TLR[S5]IQR[S5][Cba][2Nal]-NH2 (staple 11-15) [SEQ ID NO: 153] |
| 0.361 | {Palmitoyl-PEG4″}-HRQRSLQTLR[S5]IQR[S5][Cba][2Nal]-NH2 (staple 11-15) [SEQ ID NO: 160] |
| 0.281 | Ac-HR[NMeQ]RSL[NMeQ]TLR[S5]IQR[S5][Cba][2Nal]-NH2 (staple 11-15) [SEQ ID NO: 155] |
| 2.13 | dimethyl-L[NMeQ]TLR[S5]IQR[S5][Cba][2Nal]-NH2 (staple 6-10; not fully specified) [SEQ ID NO: 144] |
| 0.195 | B11 |
| 0.383 | B12 |
